What was measured:
[1] = target: human PD-L1 on cell surface (human) (UniProt Q9NZQ7); assay: flow cytometry on CHO cells expressing human PD-L1, fitted curve, negative control
[2] = target: monkey PD-L1 on cell surface (monkey); assay: flow cytometry on CHO cells expressing monkey PD-L1, fitted curve, negative control
[3] = target: biotin-labeled PD-L1-Fc (human) (UniProt Q9NZQ7); assay: ELISA: biotin-PD-L1-Fc binding to coated human PD-1 with titrated antibody; negative control
[4] = target: biotin-labeled PD-L1-Fc (human) (UniProt Q9NZQ7); assay: ELISA: biotin-PD-L1-Fc binding to coated human PD-1 with titrated antibody, OD 450 nm, fitted curve; negative control
[5] = target: biotin-labeled PD-L1-Fc (human) (UniProt Q9NZQ7); assay: flow cytometry: biotin-PD-L1-Fc binding to CHO cells expressing human PD-1 with titrated antibody, fitted curve; negative control

Sequence of biotin-labeled PD-L1-Fc (human) (Q9NZQ7 19-238 limits assumed): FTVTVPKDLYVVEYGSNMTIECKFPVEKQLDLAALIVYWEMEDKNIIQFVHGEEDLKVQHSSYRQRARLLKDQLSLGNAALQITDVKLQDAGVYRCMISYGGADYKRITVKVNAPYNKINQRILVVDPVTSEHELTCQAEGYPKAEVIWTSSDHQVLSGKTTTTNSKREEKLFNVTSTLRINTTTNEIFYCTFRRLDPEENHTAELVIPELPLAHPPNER
Sequence of human PD-L1 on cell surface (human) (Q9NZQ7 19-290): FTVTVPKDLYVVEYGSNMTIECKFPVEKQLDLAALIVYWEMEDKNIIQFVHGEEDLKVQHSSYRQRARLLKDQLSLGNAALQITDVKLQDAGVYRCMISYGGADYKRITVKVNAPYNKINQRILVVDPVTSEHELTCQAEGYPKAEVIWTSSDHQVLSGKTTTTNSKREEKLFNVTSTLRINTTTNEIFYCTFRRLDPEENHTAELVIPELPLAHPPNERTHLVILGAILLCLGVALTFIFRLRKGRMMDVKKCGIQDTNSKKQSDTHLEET

Bottom [1]: 166
EC50 [1]: 0.015 nM
LogEC50 [1]: -1.82
Span [1]: 24.7
Top [1]: 191
Bottom [2]: 216
EC50 [2]: 19.3 nM
LogEC50 [2]: 1.29
Span [2]: 32
Top [2]: 248
EC50 [3]: 2.88 µg/mL
Bottom [4]: 1.75
LogEC50 [4]: 3.46
Span [4]: 0.186
Top [4]: 1.94
Bottom [5]: 5880
LogEC50 [5]: -17.5
Span [5]: 1.15e+06
Top [5]: 1.16e+06
Substance: negative control antibody human IgG
